The numbers were not newly measured in publication PMC9369280, which cites them from elsewhere.

Among the targets are FGF-1 (Homo sapiens) (UniProt P05230); FGF-2 (Homo sapiens) (UniProt P09038); FGFR2 (Homo sapiens) (UniProt P21802).
What all share (experiment): SPR

Sequence of UniProt P05230 (P05230 16-155): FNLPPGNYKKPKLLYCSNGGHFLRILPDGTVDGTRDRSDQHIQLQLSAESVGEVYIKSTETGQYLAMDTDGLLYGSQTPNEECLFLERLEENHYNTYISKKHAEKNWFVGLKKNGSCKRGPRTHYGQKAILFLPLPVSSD
Sequence of UniProt P09038 (P09038 143-288): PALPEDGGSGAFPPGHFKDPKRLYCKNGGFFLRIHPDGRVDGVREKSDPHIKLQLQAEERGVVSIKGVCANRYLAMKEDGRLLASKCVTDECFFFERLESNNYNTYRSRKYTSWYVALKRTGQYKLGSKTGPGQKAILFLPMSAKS
Sequence of UniProt P21802 (P21802 22-377): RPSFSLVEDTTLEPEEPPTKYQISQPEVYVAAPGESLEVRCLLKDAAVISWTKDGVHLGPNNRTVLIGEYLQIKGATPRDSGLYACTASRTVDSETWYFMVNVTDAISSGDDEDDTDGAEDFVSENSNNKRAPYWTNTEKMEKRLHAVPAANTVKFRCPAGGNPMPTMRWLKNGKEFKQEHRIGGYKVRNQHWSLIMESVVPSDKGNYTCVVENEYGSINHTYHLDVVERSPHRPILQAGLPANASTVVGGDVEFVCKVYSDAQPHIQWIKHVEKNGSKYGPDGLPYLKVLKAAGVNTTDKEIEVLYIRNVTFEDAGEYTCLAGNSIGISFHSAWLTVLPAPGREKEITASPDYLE

Take CCN2 (from UniProt P29279): the Kd in the data set with FGF-1 (Homo sapiens) is 3.98 nM; with FGF-2 (Homo sapiens), 5.5 nM; with FGFR2 (Homo sapiens), 7.91 nM.
